Test results published in patent publication CN115141281A (dated 2022).

Biological target: T1, 人环氧合酶-2(COX-2) (human, UniProt P35354 18-604, limits assumed)
T1 construct: also called 人COX-2; 重组人COX2
T1 sequence (looked up): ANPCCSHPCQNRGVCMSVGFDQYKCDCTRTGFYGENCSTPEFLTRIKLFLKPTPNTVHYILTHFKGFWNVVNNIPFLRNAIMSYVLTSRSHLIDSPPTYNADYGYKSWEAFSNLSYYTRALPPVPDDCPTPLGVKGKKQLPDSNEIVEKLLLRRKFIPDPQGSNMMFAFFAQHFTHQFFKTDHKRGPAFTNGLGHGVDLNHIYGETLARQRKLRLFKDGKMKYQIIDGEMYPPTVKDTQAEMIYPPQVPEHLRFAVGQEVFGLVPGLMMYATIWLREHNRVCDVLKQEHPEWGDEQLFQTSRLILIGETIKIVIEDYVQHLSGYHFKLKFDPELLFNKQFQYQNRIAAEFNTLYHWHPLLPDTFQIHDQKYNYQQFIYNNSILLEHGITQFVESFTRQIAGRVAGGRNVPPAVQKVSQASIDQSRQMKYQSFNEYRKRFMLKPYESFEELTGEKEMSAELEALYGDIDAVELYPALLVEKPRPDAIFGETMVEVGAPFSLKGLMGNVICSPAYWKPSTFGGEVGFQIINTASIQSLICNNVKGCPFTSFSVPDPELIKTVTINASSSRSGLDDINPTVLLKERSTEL
Test: BLI, antibody (25 nM) loaded on AHC sensor, two-fold dilutions of human COX-2 in solution

Kd: 0.696 nM
B1: COX-2-HM4E6单克隆抗体 (antibody, V domains shown)
VH: EVQLEESATELARPGASVKLSCKASGYIFSVLMILWIKQRPGQGLEWIGLCKMLIPNFNMRHALFGKATLTADKSSSTAYMQLSSLASEDSAVYYCAGFIDNIWYWGLGTTLAVSS
VL: DIVITQRPALMAASPGEKVTITCQDSGNVYRNEKPWYQQKSGISPKPWIYYATHFTKGVPARFSGSGSGTSYSLTITSMEAEDAATYYCTFGCKHFDHFGAGTKLELK
